Experimental data as given in article PMC2873776.
Each block holds one substance with its values, some of them ahead of it.

Columns and labels:
[1] = molecular target: CheA:CheW complex (CheAΔ289 dimer with one CheW bound to each subunit) (T. maritima) (UniProt Q56310); assay: pulsed dipolar ESR spectroscopy
[2] = molecular target: CheA (Thermotoga maritima) (UniProt Q56310); settings: cited from earlier work
[3] = molecular target: CheAΔ289 (290–671) (T. maritima) (UniProt Q56310); assay: pulsed dipolar ESR spectroscopy

Sequence of CheW (Q56311 whole entry): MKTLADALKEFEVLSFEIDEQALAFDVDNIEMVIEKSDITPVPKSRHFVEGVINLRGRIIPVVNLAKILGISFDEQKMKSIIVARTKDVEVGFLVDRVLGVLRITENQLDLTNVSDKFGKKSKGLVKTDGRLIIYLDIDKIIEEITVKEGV
Sequence of CheA (Thermotoga maritima) (Q56310 whole entry): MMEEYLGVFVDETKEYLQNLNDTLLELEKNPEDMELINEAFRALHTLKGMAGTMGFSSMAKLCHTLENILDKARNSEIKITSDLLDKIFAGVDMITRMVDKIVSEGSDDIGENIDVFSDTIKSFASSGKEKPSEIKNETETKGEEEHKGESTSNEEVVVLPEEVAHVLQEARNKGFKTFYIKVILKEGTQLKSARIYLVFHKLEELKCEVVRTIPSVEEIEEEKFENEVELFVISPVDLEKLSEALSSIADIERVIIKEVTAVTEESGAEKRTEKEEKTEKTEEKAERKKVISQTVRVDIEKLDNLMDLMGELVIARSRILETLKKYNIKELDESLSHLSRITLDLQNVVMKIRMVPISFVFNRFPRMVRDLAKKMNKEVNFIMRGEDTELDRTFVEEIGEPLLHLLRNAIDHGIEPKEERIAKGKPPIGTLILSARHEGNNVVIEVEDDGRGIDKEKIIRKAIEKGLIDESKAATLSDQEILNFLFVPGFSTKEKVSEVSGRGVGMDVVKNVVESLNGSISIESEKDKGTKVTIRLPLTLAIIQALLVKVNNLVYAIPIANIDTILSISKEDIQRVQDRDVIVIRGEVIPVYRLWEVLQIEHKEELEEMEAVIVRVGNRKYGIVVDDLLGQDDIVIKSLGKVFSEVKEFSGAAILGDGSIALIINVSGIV

- stoichiometry N (Tm14 dimer per CheA:CheW dimer) [1]: 1
Substance: Tm14C (Tm14: residues 40–213) (domain or fragment)

Substance: CheW (from UniProt Q56311)
- Kd [2]: 0.1 µM

- stoichiometry N [3]: 4
Substance: CheAΔ289 (290–671) (from UniProt Q56310 290-671) (domain or fragment)
